Columns and labels:
protein S = molecular target: T1, protein S (Homo sapiens, UniProt P07225); experiment: Binding of protein S to the binding site on C4BPβ in the presence of physiological calcium
T1 sequence (P07225 42-676): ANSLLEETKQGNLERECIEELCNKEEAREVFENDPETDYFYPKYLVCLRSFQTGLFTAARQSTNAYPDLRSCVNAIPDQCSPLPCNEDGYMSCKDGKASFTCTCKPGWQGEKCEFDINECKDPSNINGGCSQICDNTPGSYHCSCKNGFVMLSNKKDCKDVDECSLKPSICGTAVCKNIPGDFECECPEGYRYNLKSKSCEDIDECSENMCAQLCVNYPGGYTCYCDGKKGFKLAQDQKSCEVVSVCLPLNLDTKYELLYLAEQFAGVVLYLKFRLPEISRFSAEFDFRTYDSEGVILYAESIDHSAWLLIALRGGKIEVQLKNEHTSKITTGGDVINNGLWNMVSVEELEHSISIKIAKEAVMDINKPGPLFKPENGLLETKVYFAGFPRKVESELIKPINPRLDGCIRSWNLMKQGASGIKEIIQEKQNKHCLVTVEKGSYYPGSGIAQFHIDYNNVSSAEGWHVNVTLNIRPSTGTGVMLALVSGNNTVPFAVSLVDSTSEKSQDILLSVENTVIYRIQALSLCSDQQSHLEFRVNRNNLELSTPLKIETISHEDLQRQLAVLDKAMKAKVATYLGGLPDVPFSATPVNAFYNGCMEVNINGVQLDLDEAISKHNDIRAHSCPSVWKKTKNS
Method: Even though it is possible to design C4BP-like molecules which could be very efficient as catching ligands in assays for free protein S, suitable embodiments of the invention are based on use of the entire C4BP molecule or, rather, C4BP species comprising the β-chain, i.e. C4BPβ, as ligands in such assays. Since the binding site on C4BPβ binds protein S with very high affinity (KD=0.1 nM) in the presence of physiological calcium concentrations, the association rate constant in the presence of calcium ions being high (almost 10^5 M^−1 s−^1) and the dissociation rate constant being low (approximately 5×10^−4 s−^1), C4BPβ (containing an unoccupied protein S binding site on the β-chain) is a highly specific and efficient ligand for free protein S and is able to specifically bind to free protein S in a solution containing both free protein S and PS:C4BP complexes.

free protein S = molecular target: T2, free protein S (Homo sapiens, UniProt P07225); experiment: Addition of C4BP to human plasma, free protein S measured with the assay of Example 2; type: binding; conditions: two-fold molar excess of C4BP compared to free protein S, 1 hour at 37° C.
T2 construct: from tissue; host or cells: human plasma
T2 sequence (P07225 42-676): T1 sequence (P07225 42-676)
Method: Assay procedure: Aliquots (50 μl) of the sample to be analyzed (for patient plasma usually 1:100 dilutions of plasma, the buffer for dilution being TBS containing 1% BSA, 2 mM calciumchloride and 1 mM benzamidine) were added to the wells of C4BP-microtiter plates and incubated at room temperature for 30 minutes. The wells were then washed with TBS-wash-ing buffer and biotinylated monoclonal antibody HPS54 (diluted 1:1000, corresponding to about 0.1–1 μg/ml, in TBS containing 1% BSA, 2 mM calcium chloride) was added. Unbound HPS54 was washed away with 3×TBS-washing buffer. Peroxidase-conjugated streptavidine (from Dakopatts AS and prepared according to the manufacturers instructions and diluted 1:2500) (50 μl/well) was added and incubated 15 minutes at room temperature before unbound complexes were washed away with 3×TBS-washing buffer. Aliquots (100 μl/well) of the peroxidase substrate OPD (1,2-ortho-phenylene diamine in the form of 2 mg tablets from Dakopatts A/S) at 1.5 mg/ml in 0.1 M citric acid-phosphate buffer, pH 5.0 (prepared according to instructions from Dakopatts) was added together with H2O2 (0.015%). After exactly 5 minutes, the reaction was stopped by 100 μl/well of 1 M H2SO4 and the absorbance was measured at 490 nm.
To test the specificity of the assay for free protein S, two different experiments were performed. […]

association rate constant (protein S; presence of calcium ions): ~10^5 M^−1 s−^1
dissociation rate constant (protein S; presence of calcium ions): approximately 5×10^−4 s−^1
Kd (protein S; presence of physiological calcium concentrations): 0.1 nM
drop in free protein S (free protein S): 90%
B1: C4BPβ: species of C4b-binding protein containing the protein S binding β-chain, isolated from human plasma (protein)
chain 1: NCGPPPTLSFAAPMDITLTETRFKTGTTLKYTCLPGYVRSHSTQTLTCNSDGEWVYNTFCIYKRCRHPGELRNGQVEIKTDLSFGSQIEFSCSEGFFLIGSTTSRCEVQDRGVGWSHPLPQCEIVKCKPPPDIRNGRHSGEENFYAYGFSVTYSCDPRFSLLGHASISCTVENETIGVWRPSPPTCEKITCRKPDVSHGEMVSGFGPIYNYKDTIVFKCQKGFVLRGSSVIHCDADSKWNPSPPACEPNSCINLPDIPHASWETYPRPTKEDVYVVGTVLRYRCHPGYKPTTDEPTTVICQKNLRWTPYQGCEALCCPEPKLNNGEITQHRKSRPANHCVYFYGDEISFSCHETSRFSAICQGDGTWSPRTPSCGDICNFPPKIAHGHYKQSSSYSFFKEEIIYECDKGYILVGQAKLSCSYSHWSAPAPQCKALCRKPELVNGRLSVDKDQYVEPENVTIQCDSGYGVVGPQSITCSGNRTWYPEVPKCEWETPEGCEQVLTGKRLMQCLPNPEDVKMALEVYKLSLEIEQLELQRDSARQSTLDKEL
chain 2: SDAEHCPELPPVDNSIFVAKEVEGQILGTYVCIKGYHLVGKKTLFCNASKEWDNTTTECRLGHCPDPVLVNGEFSSSGPVNVSDKITFMCNDHYILKGSNRSQCLEDHTWAPPFPICKSRDCDPPGNPVHGYFEGNNFTLGSTISYYCEDRYYLVGVQEQQCVDGEWSSALPVCKLIQEAPKPECEKALLAFQESKNLCEAMENFMQQLKESGMTMEELKYSLELKKAELKAKLL
